According to the supplement of paper PMC12764529:
± gives the half width of the 95% confidence interval.

Experiments:
[1] = folding stability dG unfold from trypsin proteolysis; higher = more stable
In short: (§1)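 Unfolding free energy was derived, per protease or combined, against a sequence-predicted unfolded-state K50 and a shared folded-state K50, starting from K50 inferred by Bayesian fitting of sequencing counts. Digestion with trypsin and chymotrypsin was carried out on designed mini-proteins under 80 residues without cysteine in a PA-tagged cDNA display construct. Only designs with AlphaFold2 dimer inter-PAE above 15 were kept.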

[2] = folding stability dG unfold from chymotrypsin proteolysis; higher = more stable
In short: as §1

[3] = folding stability dG unfold (combined trypsin and chymotrypsin); higher = more stable
In short: as §1

Row | Sequence | folding stability dG unfold [1] [kcal/mol] | folding stability dG unfold [2] [kcal/mol] | folding stability dG unfold [3] [kcal/mol]
1 | SAPPDFKIKDVKVRRHPHKQEDGGKEKEFPMYHVNVRIEDPNGNKIPINFMMDDPEEMLRFARKLLKKLSAG [r14_36_TrROS] | 2.2 ± 0.14 | 2.17 ± 0.2 | 2.14 ± 0.25
2 | SAPPIEELSEEEIKKLVEEELKKKGISPENVKIEITIEKPPGPEYRVKVKVTYKKNKNYLEFEFEFELPSAG [r14_703_JUSTAS] | 2.34 ± 0.2 | 4.23 ± 0.17 | 3.96 ± 0.33
3 | SAPPNVWVSRTDPATGAVHAEDIPFPDGATAETVPDPATGTVAQSSDGPPAVLEEVRAALPPDASIEPASAG [r14_252_JUSTAS] | -0.555 ± 0.15 | -0.245 ± 0.42 | -0.175 ± 0.2
4 | SAPPRISIPWDPESGNWRVKVYNPKDPGKKREIDIPMKELQAKHGKPMSPNEIAQWLVKKGIDYVEIYPSAG [r14_809_TrROS] | 0.183 ± 0.19 | 0.559 ± 0.21 | 0.409 ± 0.2
5 | SAPVRGPDGSVFEVDDITFDPDTRTVTVTTPEGTYTFPVPPGWVVEFDPVTKEITVRPLPDLSPENNPFPSA [r9_551_TrMRF] | 2.54 ± 0.15 | 2.84 ± 0.06 | 2.79 ± 0.097
6 | SARIAEILRELGMEVSVENHPDGMNEITFKFPNGYKIQVHMSPNGIDVQIQPPEGERRTFSIDEIKDLLSAG [r14_578_TrROS] | 2.23 ± 0.071 | 3.14 ± 0.046 | 2.77 ± 0.081
7 | SARPLVVTNPKGSTVRLDPSTGTAEFRNLVTGETVTAKVKPVPNGVLVEVEEGGVKKTFVVPEDGKIVLGSA [r9_239_TrMRF] | 0.172 ± 0.052 | -0.372 ± 0.087 | -0.0287 ± 0.066
8 | SARRDGSKVFLELERVVPLDVPLETVLEEVRRLFPEDAEIRLEAVPRRDLLDGVPREYRVVRVIVVRDDSAG [r14_633_TrMRF] | 1.06 ± 0.058 | 2.16 ± 0.039 | 1.79 ± 0.15
9 | SARTLTITVPPGYRARVVVTLENGEPLELEVPPSESVTLTIPPGVPALVRVEVFYPDGSVGEFEVEVDDSAG [r14_568_TrMRF] | 4.65 ± 0.25 | 4.76 ± 0.14 | 4.79 ± 0.2
10 | SASEDETVETTTTTTSTFTLPNGETVTLTTTTKTTEKILPETGEVVESTTTTTTVTRTDASTTTTVATSSAG [r14_333_JUSTAS] | 1.12 ± 0.068 | 1.22 ± 0.082 | 1.27 ± 0.11
11 | SASEDGYVVVEITIPIEIYMPMYKYSPDGKWKWEPHQMEIKLEITVQVKKDPEAADRAREFADRILDYISAG [r14_830_TrROS] | 2.7 ± 0.13 | 3.59 ± 0.21 | 3.22 ± 0.23
12 | SASFTLTITPVSTLPGGEVKYEVTVTTPTATVTLSATYDPATGLITVTFPETGSTVTFDPATGTVTVTPSAG [r14_260_JUSTAS] | 3.93 ± 0.12 | 5.089 ± 0.032 | 5.05 ± 0.083
13 | SASITHTVPGVQVRAYLNPDGYMFIQVYNPNDGEPKQPIWMPPDHITDVEVTGDWVKITIKMDPEDFKLSAG [r14_755_TrROS] | 1.25 ± 0.052 | 2.32 ± 0.08 | 2.06 ± 0.16
14 | SASITLTAPGGKPVTLPVPPSLSVLSVELDPATGRWTIELQDPATGERFTVTVYAPPSGPAGVEVTPNVSAG [r14_311_JUSTAS] | 3.61 ± 0.04 | 3.409 ± 0.02 | 3.486 ± 0.032
15 | SASLGISKIETSSLPNGTTVVTVTFSKPNLKVTLTKNPDGTITITLSPEVKKLPEEVKKLVEELAAKLSSAG [r14_555_JUSTAS] | 3.97 ± 0.1 | 3.97 ± 0.048 | 3.95 ± 0.095
